Source: publication PMC2783173

Tests used:
Assay in all cases: split reporter
[1] = target: HIV-1 Nef (SF2) I109D/L112D/Y115D/F121D, YFP BiFC fusions (HIV-1 (SF2 allele))
[2] = target: HIV-1 Nef (SF2) R105E, YFP BiFC fusions (HIV-1 (SF2 allele))
[3] = target: HIV-1 Nef (SF2) 2PA (SH3-binding motif mutant), YFP BiFC fusions (HIV-1 (SF2 allele)) (UniProt P03407)
[4] = target: HIV-1 Nef (SF2) L112A, YFP BiFC fusions (HIV-1 (SF2 allele))
[5] = target: HIV-1 Nef (SF2) L112D/Y115D, YFP BiFC fusions (HIV-1 (SF2 allele))
[6] = target: HIV-1 Nef (SF2) Y115D, YFP BiFC fusions (HIV-1 (SF2 allele))
[7] = target: HIV-1 Nef (SF2) L112D, YFP BiFC fusions (HIV-1 (SF2 allele))
[8] = target: HIV-1 Nef (SF2) R105E/R106E, YFP BiFC fusions (HIV-1 (SF2 allele))
[9] = target: HIV-1 Nef (SF2) D123A, YFP BiFC fusions (HIV-1 (SF2 allele))
[10] = target: HIV-1 Nef (SF2) D123V, YFP BiFC fusions (HIV-1 (SF2 allele))
[11] = target: HIV-1 Nef (SF2) D123N, YFP BiFC fusions (HIV-1 (SF2 allele))
[12] = target: HIV-1 Nef (SF2) F121A, YFP BiFC fusions (HIV-1 (SF2 allele))

Substance: HIV-1 Nef (SF2) I109D/L112D/Y115D/F121D, YFP BiFC fusions (natural protein)
- % decrease in BiFC relative to WT [1]: 99.9%

Substance: HIV-1 Nef (SF2) R105E, YFP BiFC fusions (natural protein)
- % decrease in BiFC relative to WT [2]: 49.9%

Substance: HIV-1 Nef (SF2) 2PA (SH3-binding motif mutant), YFP BiFC fusions (from UniProt P03407) (natural protein)
- % decrease in BiFC relative to WT [3]: 0%

Substance: HIV-1 Nef (SF2) L112A, YFP BiFC fusions (natural protein)
- % decrease in BiFC relative to WT [4]: 52.8%

Substance: HIV-1 Nef (SF2) L112D/Y115D, YFP BiFC fusions (natural protein)
- % decrease in BiFC relative to WT [5]: 86.7%

Substance: HIV-1 Nef (SF2) Y115D, YFP BiFC fusions (natural protein)
- % decrease in BiFC relative to WT [6]: 59.1%

Substance: HIV-1 Nef (SF2) L112D, YFP BiFC fusions (natural protein)
- % decrease in BiFC relative to WT [7]: 47.5%

Substance: HIV-1 Nef (SF2) R105E/R106E, YFP BiFC fusions (natural protein)
- % decrease in BiFC relative to WT [8]: 71.1%

Substance: HIV-1 Nef (SF2) D123A, YFP BiFC fusions (natural protein)
- % decrease in BiFC relative to WT [9]: 69.6%

Substance: HIV-1 Nef (SF2) D123V, YFP BiFC fusions (natural protein)
- % decrease in BiFC relative to WT [10]: 52.9%

Substance: HIV-1 Nef (SF2) D123N, YFP BiFC fusions (natural protein)
- % decrease in BiFC relative to WT [11]: 97.1%

Substance: HIV-1 Nef (SF2) F121A, YFP BiFC fusions (natural protein)
- % decrease in BiFC relative to WT [12]: 33%
